# Measurements reported in patent publication US20110311556A1 (LFB BIOTECHNOLOGIES, published 2011).
# T1: Rhesus D antigen (RhD) on Rhesus D positive red blood cells group O R1R1 (human, UniProt Q02161 2-417)
# T1 construct: whole, on cells
# T1 sequence (looked up): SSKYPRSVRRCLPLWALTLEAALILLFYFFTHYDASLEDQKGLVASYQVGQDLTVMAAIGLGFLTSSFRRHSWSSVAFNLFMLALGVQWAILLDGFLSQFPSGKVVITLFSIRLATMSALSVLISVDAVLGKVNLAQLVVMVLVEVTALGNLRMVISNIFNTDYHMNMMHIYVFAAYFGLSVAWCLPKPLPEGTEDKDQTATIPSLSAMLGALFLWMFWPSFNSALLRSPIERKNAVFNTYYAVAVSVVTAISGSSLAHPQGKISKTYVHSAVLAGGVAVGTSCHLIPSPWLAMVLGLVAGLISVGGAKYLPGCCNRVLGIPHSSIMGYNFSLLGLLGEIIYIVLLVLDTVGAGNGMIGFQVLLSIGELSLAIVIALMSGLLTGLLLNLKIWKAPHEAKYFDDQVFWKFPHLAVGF
# Key:
# CD16 (FcγRIII receptor) = CD16 (FcγRIII receptor) (UniProt P08637 17-254, limits assumed); experiment: cell-based or functional assay
# CD16 (FcγRIII receptor), sequence (P08637 17-254 limits assumed): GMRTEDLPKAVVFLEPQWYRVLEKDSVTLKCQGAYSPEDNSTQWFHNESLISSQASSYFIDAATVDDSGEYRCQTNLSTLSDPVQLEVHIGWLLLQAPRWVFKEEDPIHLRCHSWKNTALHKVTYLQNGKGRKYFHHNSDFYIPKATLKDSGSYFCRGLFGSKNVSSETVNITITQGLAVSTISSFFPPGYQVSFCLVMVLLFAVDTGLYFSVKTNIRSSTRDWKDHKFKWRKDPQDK
# [1] = target: T1, Rhesus D antigen (RhD) on Rhesus D …; experiment: cytometric determination of anti-D specific activity on red blood cells
Binder,ADCC activity: EC50 (antibody concentration producing 50% of maximum activity) (CD16 (FcγRIII receptor)),binding result [1]
"non-mutant (C68) anti-D antibody (sequence of the R297 antibody of clone T125 A2) (antibody, human IgG1, kappa, IgG1 tetramer; also called non-mutant (C68) antibody; T125 anti-D antibody) heavy: not shown light: AIRMTQSPSSFSASTGDRVTITCRASQDIRNYVAWYQQKSGKAPKFLIYAASTLQSGVPSRFSGSGSGTDFTLTINSLQSEDFATYYCQQYYNSPPTFGQGTRVEITRTVAAPSVFIFPPSDEQLKSGTASVVCLLNNFYPREAKVQWKVDNALQSGNSQESVTEQDSKDSTYSLSSTLTLSKADYEKHKVYACEVTHQGLSSPVTKSFNRGEC",20 ng/mL,binds
"R593 antibody (mutant (F68) anti-D antibody) (antibody, human IgG1, kappa, Tetrameric IgG1 with kappa light chain, two heavy and two light chains; Phenylalanine at heavy chain position 68 (67 by Kabat); Produced in the YB2/0 line; also called mutant (F68) antibody; mutant F68 antibody) heavy: not shown light: AIRMTQSPSSFSASTGDRVTITCRASQDIRNYVAWYQQKSGKAPKFLIYAASTLQSGVPSRFSGSGSGTDFTLTINSLQSEDFATYYCQQYYNSPPTFGQGTRVEITRTVAAPSVFIFPPSDEQLKSGTASVVCLLNNFYPREAKVQWKVDNALQSGNSQESVTEQDSKDSTYSLSSTLTLSKADYEKHKVYACEVTHQGLSSPVTKSFNRGEC",21 ng/mL,binds
